Paper PMC10576055
Values joined by “and” are separate entries in the source; they are usually repeats but may differ in a detail not shown here. Identical values can stand only once.

Biological target: T1, GIPR-Rluc8 (human), P48546
T1 chain: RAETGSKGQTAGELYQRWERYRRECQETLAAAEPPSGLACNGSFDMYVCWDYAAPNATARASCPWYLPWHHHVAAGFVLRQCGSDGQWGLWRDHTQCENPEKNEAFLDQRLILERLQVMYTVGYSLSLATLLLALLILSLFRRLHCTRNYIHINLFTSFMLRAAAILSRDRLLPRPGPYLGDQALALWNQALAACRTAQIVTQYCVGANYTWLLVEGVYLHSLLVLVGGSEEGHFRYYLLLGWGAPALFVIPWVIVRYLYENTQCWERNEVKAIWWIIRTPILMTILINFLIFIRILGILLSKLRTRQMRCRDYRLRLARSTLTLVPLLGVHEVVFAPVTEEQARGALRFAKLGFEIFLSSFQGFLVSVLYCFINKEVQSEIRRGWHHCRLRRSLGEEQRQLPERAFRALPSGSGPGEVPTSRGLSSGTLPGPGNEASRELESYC
Test: FRET or BRET
Conditions: remark: other sources report otherwise

pEC50 of GIP (1-42) for β-arr1 recruitment (BRET): 7.7 and 7.94 and 7.67
B1: Venus-β-arrestin 1, P49407 1-418 (natural protein)
chain: MGDKGTRVFKKASPNGKLTVYLGKRDFVDHIDLVDPVDGVVLVDPEYLKERRVYVTLTCAFRYGREDLDVLGLTFRKDLFVANVQSFPPAPEDKKPLTRLQERLIKKLGEHAYPFTFEIPPNLPCSVTLQPGPEDTGKACGVDYEVKAFCAENLEEKIHKRNSVRLVIRKVQYAPERPGPQPTAETTRQFLMSDKPLHLEASLDKEIYYHGEPISVNVHVTNNTNKTVKKIKISVRQYADICLFNTAQYKCPVAMEEADDTVAPSSTFCKVYTLTPFLANNREKRGLALDGKLKHEDTNLASSTLLREGANREILGIIVSYKVKVKLVVSRGGLLGDLASSDVAVELPFTLMHPKPKEEPPHREVPENETPVDTNLIELDTNDDDIVFEDFARQRLKGMKDDKEEEEDGTGSPQLNNR
